Source: article PMC11261718

Target: West Nile virus NS5 protein, wild-type, with a C-terminal Flag tag (UniProt P06935)
Assay: co-immunoprecipitation (NS5-Flag IP, western blot for NS3-myc)
Conditions: parent: 100

West Nile virus NS3 protein, wild-type, with a C-terminal myc tag (from UniProt P06935) R186A
percent of parent (IP with RNase): 69%
percent of parent (IP without RNase): 107%
